Five substances from publication PMC3725505 can be followed below.

Assay [1] concerns the target Kelch domain of human Keap1 (residues 321-609) (human) (UniProt Q14145). Description: ITC. In general terms: Isothermal titration calorimetry measures the heat released or taken up as one component is titrated into another.
Assay [2] deals with Keap1 (Kelch domain) Kelch domain, 321-609 (UniProt Q14145). The assay can be described thus: isothermal titration calorimetry. Conditions: reference: unphosphorylated WTX 20-mer peptide; sites S286.

Kelch domain of human Keap1 (residues 321-609) (human), sequence (Q14145 321-609): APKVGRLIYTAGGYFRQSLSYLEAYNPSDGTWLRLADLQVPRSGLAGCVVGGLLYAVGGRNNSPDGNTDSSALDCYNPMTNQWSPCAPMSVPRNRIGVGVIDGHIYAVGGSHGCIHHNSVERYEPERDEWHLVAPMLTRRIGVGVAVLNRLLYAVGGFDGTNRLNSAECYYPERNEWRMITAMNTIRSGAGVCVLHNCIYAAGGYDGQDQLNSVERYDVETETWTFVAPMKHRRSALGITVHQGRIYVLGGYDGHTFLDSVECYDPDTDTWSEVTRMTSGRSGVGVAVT

The term Kd denotes the constant that tells how readily two partners part at equilibrium. A higher Kd goes with lower affinity. In assay [1], FAC1 peptide (20-mer) gave a Kd of 1100 nM and a dH of -15.1 kcal/mol.

Usually stoichiometry N stands for a count of units in the complex or per binding partner. Take PALB2 peptide (20-mer): in assay [1], the dH was -19.3 kcal/mol and the stoichiometry N is 1.01.

As for PGAM5 peptide (20-mer), in assay [1], the dissociation constant Kd turned out to be 230 nM, the dH is -19.1 kcal/mol and the stoichiometry N was found to be 1.07.

Consider “WTX Kelch-binding region (from UniProt Q5JTC6) WTX pS286 20-mer peptide”, for which the KD entry in assay [2] was “weaker; reference 0.25 ± 0.02”.

As to WTX peptide (20-mer, unphosphorylated), in assay [1], the dissociation constant (Kd) came to 250 nM, the dH was -18 kcal/mol and the stoichiometry N stood at 1.04.
